This passage reports stoichiometry N results from paper PMC8064498.

The target in experiment [1] is SARS-CoV-2 S ectodomain (residues 1-1214) with prefusion stabilizing 986P, 987P variants, C-terminal (SARS-CoV-2) (UniProt P0DTC2). Nature of the experiment: SEC.
Experiment [2] addresses SARS-CoV-2 prefusion-stabilized spike protein ectodomain (aa 16-1208), expressed in Drosophila S2 cells (SARS-CoV-2) (UniProt P0DTC2). Briefly: SEC.

“SARS-CoV-2 S ectodomain (residues 1-1214) with prefusion stabilizing 986P, 987P variants, C-terminal (from UniProt P0DTC2 14-1214) (domain or fragment)”: in experiment [1], the stoichiometry N came out at 3.

As for “SARS-CoV-2 prefusion-stabilized spike protein ectodomain (aa 16-1208), expressed in Drosophila S2 cells (from UniProt P0DTC2 16-1208) (domain or fragment)”, in experiment [2], the stoichiometry N is 2.
